Drawing on the Immune Epitope Database (IEDB), this text covers Kd for eleven sequences.

What is called Kd is the equilibrium constant for the complex coming apart.

One experiment addresses HLA-A*02:01. In words: IEDB peptide-MHC binding, purified MHC/direct/fluorescence; filed as Kd, often an IC50 or EC50 that approximates it; ≥ and ≤ were set here for values at or beyond the usual limits of such assays.
Experiment [1] addresses HLA-A*02:03. The description is as above. To be noted: source organism: Bacillus cereus 03BB108.
The target in another experiment is HLA-A*02:12. The experiment is described as above. The note with it: source organism: Bacillus cereus 03BB108.
A further experiment concerns the target HLA-B*07:02. Described as above.
A further experiment deals with HLA-A*02:50. In words: IEDB peptide-MHC binding, purified MHC/competitive/fluorescence; filed as Kd, often an IC50 or EC50 that approximates it; ≥ and ≤ were set here for values at or beyond the usual limits of such assays.
A further experiment addresses HLA-A*01:01. In words: IEDB peptide-MHC binding, purified MHC/direct/fluorescence; filed as Kd, often an IC50 or EC50 that approximates it; ≥ and ≤ were set here for values at or beyond the usual limits of such assays.
In experiment [2] the target is HLA-A*11:01. Described as above.
For experiment [3], the target named is HLA-A*68:02. The experiment is described as above. To be noted: source organism: Vibrio parahaemolyticus.
The next experiment deals with HLA-A*69:01. The experiment is described as above.
Experiment [4] addresses HLA-B*08:01. The experiment is described as above.
For another experiment, the target named is HLA-B*08:02. The experiment is described as above. The note with it: source organism: Vibrio parahaemolyticus RIMD 2210633.
The target in the next experiment is HLA-B*15:09. The description is as above. The note with it: source organism: Vibrio parahaemolyticus RIMD 2210633.
The target of another experiment is HLA-B*18:01. Described as above.
Experiment [5] deals with HLA-B*39:01. The description is as above. To be noted: source organism: Vibrio parahaemolyticus RIMD 2210633.
The target in the next experiment is HLA-B*57:01. Described as above.
A further experiment has as its target HLA-B*58:01. The description is as above.
For experiment [6], the target named is HLA-A*26:01. In words: IEDB peptide-MHC binding, purified MHC/competitive/fluorescence; filed as Kd, often an IC50 or EC50 that approximates it; ≥ and ≤ were set here for values at or beyond the usual limits of such assays. To be noted: source organism: Vibrio parahaemolyticus K5030.
A further experiment addresses HLA-A*26:02. The description is as above.
The target of experiment [7] is HLA-B*15:01. The description is as above.
Another experiment deals with HLA-A*03:01. Description: IEDB peptide-MHC binding, purified MHC/direct/fluorescence; filed as Kd, often an IC50 or EC50 that approximates it; ≥ and ≤ were set here for values at or beyond the usual limits of such assays.
Experiment [8] addresses HLA-A*26:01. Described as above.
Another experiment addresses HLA-A*31:01. The experiment is described as above.
Experiment [9] deals with HLA-B*15:01. The experiment is described as above.
A further experiment addresses HLA-B*27:05. The experiment is described as above.
The target of experiment [10] is HLA-B*40:01. Described as above.
Another experiment deals with HLA-B*44:02. Described as above.
The target of a further experiment is HLA-A*24:03. The description is as above. To be noted: source organism: Yersinia pestis.
Experiment [11] concerns the target HLA-B*40:01. Description: IEDB peptide-MHC binding, purified MHC/competitive/fluorescence; filed as Kd, often an IC50 or EC50 that approximates it; ≥ and ≤ were set here for values at or beyond the usual limits of such assays.
Experiment [12] has as its target HLA-B*39:01. Described as above.
The target of the next experiment is HLA-B*15:17. Description: IEDB peptide-MHC binding, purified MHC/direct/fluorescence; filed as Kd, often an IC50 or EC50 that approximates it; ≥ and ≤ were set here for values at or beyond the usual limits of such assays. To be noted: source organism: Escherichia coli O157:H7.
Experiment [13] addresses HLA-A*11:01. Description: IEDB peptide-MHC binding, purified MHC/competitive/fluorescence; filed as Kd, often an IC50 or EC50 that approximates it; ≥ and ≤ were set here for values at or beyond the usual limits of such assays. The note with it: source organism: Escherichia coli str. K-12 substr. MG1655.
Experiment [14] has as its target HLA-A*68:02. The experiment is described as above. To be noted: source organism: Escherichia coli str. K-12 substr. MG1655.
A further experiment has as its target HLA-C*03:03. In words: IEDB peptide-MHC binding, purified MHC/direct/fluorescence; filed as Kd, often an IC50 or EC50 that approximates it; ≥ and ≤ were set here for values at or beyond the usual limits of such assays.
The target of experiment [15] is HLA-A*02:03. Description: IEDB peptide-MHC binding, purified MHC/competitive/fluorescence; filed as Kd, often an IC50 or EC50 that approximates it; ≥ and ≤ were set here for values at or beyond the usual limits of such assays. To be noted: source organism: Homo sapiens.
For another experiment, the target named is HLA-A*02:06. The description is as above. To be noted: source organism: Homo sapiens.
The next experiment concerns the target HLA-A*30:01. The experiment is described as above. The note with it: source organism: Homo sapiens.
The target in experiment [16] is HLA-B*08:01. The experiment is described as above. To be noted: source organism: Homo sapiens.
[17] abbreviates: source organism: Bacillus anthracis.
[18] abbreviates: source organism: Vibrio parahaemolyticus.
Setting [19] is: source organism: Vibrio parahaemolyticus RIMD 2210633.
Setting [20] is: source organism: Vibrio parahaemolyticus K5030.
[21] abbreviates: source organism: Vibrio cholerae.
Where [22] appears, read: source organism: Yersinia pestis.
[23] abbreviates: source organism: Escherichia coli APEC O1.
Where [24] appears, read: source organism: Escherichia coli O139:H28 str. E24377A.
[25] abbreviates: source organism: Escherichia coli O157:H7.

A value given as a limit tells only on which side of the number the result lay.

As for AQMVWIHGV, the dissociation constant Kd in the experiment with HLA-A*02:01 (setting [17]) is 0.0013 µM; with HLA-A*02:03 [1], 0.03 µM; with HLA-A*02:12, 0.071 µM; with HLA-B*07:02 (setting [17]), not below 20 µM; in the experiment with HLA-A*02:50 (source organism: Bacillus anthracis str. A2012), 0.0003 µM.
For DMRKRIEAF, the Kd with HLA-A*01:01 (setting [18]), in the experiment with HLA-A*02:01 (setting [18]), with HLA-A*11:01 [2] (setting [18]), in the experiment with HLA-A*68:02 [3], with HLA-A*69:01 (setting [18]) and with HLA-B*07:02 (setting [18]) was not below 20 µM throughout. The Kd is 0.013 µM with HLA-B*08:01 [4] (setting [19]); 0.171 µM in the experiment with HLA-B*08:02; not below 20 µM in the experiment with HLA-B*15:09; 0.025 µM with HLA-B*18:01 (setting [19]); not below 20 µM in the experiment with HLA-B*39:01 [5]; not below 20 µM in the experiment with HLA-B*57:01 (setting [18]). Also, the equilibrium dissociation constant (Kd) with HLA-B*58:01 (setting [18]) was not below 20 µM; with HLA-A*26:01 [6], not below 20 µM; in the experiment with HLA-A*26:02 (setting [20]), 0.0073 µM; with HLA-B*15:01 [7] (setting [20]), not below 20 µM.
For the sequence FLHPKHWGT, the dissociation constant (Kd) with HLA-A*01:01 (setting [21]) was not below 20 µM; in the experiment with HLA-A*02:01 (setting [21]), 0.157 µM; with HLA-A*03:01 (setting [21]) it was not below 20 µM; with HLA-A*11:01 [2] (setting [21]), not below 20 µM; with HLA-A*26:01 [8] (setting [21]), not below 20 µM; with HLA-A*31:01 (setting [21]), not below 20 µM. The dissociation constant Kd with HLA-A*69:01 (setting [21]) was 3.48 µM; with HLA-B*07:02 (setting [21]), not below 20 µM; with HLA-B*08:01 [4] (setting [21]), 0.285 µM; in the experiment with HLA-B*15:01 [9] (setting [21]) it was not below 20 µM; with HLA-B*27:05 (setting [21]) it was not below 20 µM; in the experiment with HLA-B*40:01 [10] (setting [21]) it was not below 20 µM. The equilibrium dissociation constant (Kd) with HLA-B*44:02 (setting [21]) is not below 20 µM; with HLA-B*58:01 (setting [21]), not below 20 µM; with HLA-A*02:50 (source organism: Vibrio cholerae 2740-80), not above 0.0001 µM.
Consider FMSLQSGDV, for which the Kd with HLA-A*01:01 (setting [22]), with HLA-A*02:01 (setting [22]), with HLA-A*03:01 (setting [22]), with HLA-A*11:01 [2] (setting [22]), with HLA-A*24:03 and with HLA-A*26:01 [8] (setting [22]) was not below 20 µM each time. For the same sequence, the dissociation constant Kd in the experiment with HLA-A*31:01 (setting [22]) is not below 20 µM; with HLA-A*69:01 (setting [22]), 1.34 µM; in the experiment with HLA-B*07:02 (setting [22]), not below 20 µM; with HLA-B*08:01 [4] (setting [22]), not below 20 µM; with HLA-B*15:01 [9] (setting [22]) it was not below 20 µM; in the experiment with HLA-B*27:05 (setting [22]), not below 20 µM. The Kd was not below 20 µM with HLA-B*40:01 [10] (setting [22]), not below 20 µM with HLA-B*44:02 (setting [22]), not below 20 µM in the experiment with HLA-B*58:01 (setting [22]) and 0.0025 µM in the experiment with HLA-A*02:50 (source organism: Yersinia pestis Nepal516).
For FQYYGIDWV, the dissociation constant Kd is 0.0117 µM with HLA-A*02:01 (setting [18]), 0.495 µM in the experiment with HLA-A*69:01 (setting [18]) and not above 0.0001 µM in the experiment with HLA-A*02:50 (setting [19]).
As for HESSVSWMF, the Kd is 0.67 µM with HLA-B*15:01 [7] (setting [23]) and 0.0011 µM in the experiment with HLA-B*40:01 [11] (setting [23]).
On to LQMLGENVL, for which the Kd was 0.152 µM with HLA-B*15:01 [7] (setting [24]), 0.017 µM in the experiment with HLA-B*39:01 [12] (setting [24]) and 0.836 µM with HLA-B*40:01 [11] (setting [24]).
With NLPSKPVWL, the Kd with HLA-A*01:01 (setting [25]) was not below 20 µM; with HLA-A*02:01 (setting [25]), 6.91 µM; with HLA-A*03:01 (setting [25]), not below 20 µM; in the experiment with HLA-A*31:01 (setting [25]), not below 20 µM; in the experiment with HLA-B*07:02 (setting [25]) it was 7 µM; with HLA-B*15:01 [9] (setting [25]), not below 20 µM. For the same sequence, the dissociation constant (Kd) with HLA-B*15:17, with HLA-B*18:01 (setting [25]), in the experiment with HLA-B*27:05 (setting [25]), with HLA-B*57:01 (setting [25]), with HLA-B*58:01 (setting [25]) and in the experiment with HLA-A*11:01 [13] was not below 20 µM each time. Further, the equilibrium dissociation constant (Kd) with HLA-A*26:02 (source organism: Escherichia coli str. K-12 substr. MG1655) was 0.565 µM; with HLA-A*68:02 [14] it was 3.54 µM.
Turning to VAAHNAEAM, the Kd with HLA-C*03:03 (source organism: Leishmania major strain Friedlin) was 0.002 µM.
For the sequence VLNETTNWL, the Kd with HLA-A*69:01 (source organism: West Nile virus) and with HLA-C*03:03 (source organism: Japanese encephalitis virus) was not below 20 µM each time.
In the case of VRVCACPGR, the dissociation constant (Kd) with HLA-A*02:03 [15] is not below 20 µM; with HLA-A*02:06 it was 2.07 µM; with HLA-A*26:02 (source organism: Homo sapiens) it was not below 20 µM; with HLA-A*30:01 it was 2.33 µM; with HLA-B*08:01 [16], not below 20 µM; with HLA-B*39:01 [12] (source organism: Homo sapiens) it was not below 20 µM.
